# B1: Sso0001 (Cas4 family protein from Sulfolobus solfataricus) (enzyme, Sulfolobus solfataricus P2, UniProt Q97TX9 1-202, looked up)
# chain: MITEFLLKKKLEEHLSHVKEENTIYVTDLVRCPRRVRYESEYKELAISQVYAPSAILGDILHLGLESVLKGNFNAETEVETLREINVGGKVYKIKGRADAIIRNDNGKSIVIEIKTSRSDKGLPLIHHKMQLQIYLWLFSAEKGILVYITPDRIAEYEINEPLDEATIVRLAEDTIMLQNSPRFNWECKYCIFSVICPAKLT
# notes: Sso0001, Cas4 family protein of Sulfolobus solfataricus P2; the sso0001 gene was amplified from the genome with primers that begin at the start codon and end after the stop codon; a single subunit is printed as 23 kDa; Carries an iron-sulfur cluster (mean 4.3 iron atoms per protein, consistent with 4Fe:4S); No removal of the tag is described; The size of the oligomer was not determined; also …
# Target: the molecule itself
# Assay: SEC; calibrated Superose-12 column, buffer E (20 mM Tris-HCl pH 7.5, 250 mM NaCl, 10% glycerol), flow rate 0.8 ml/min; self-association, size of the oligomer not determined
protein,measurement,value
B1,binding result,binds

# From paper PMC3466216, “The CRISPR Associated Protein Cas4 Is a 5′ to 3′ DNA Exonuclease with an Iron-Sulfur Cluster” (PLoS ONE, 2012)
